The target in this experiment is His6-REV7_(R124A), recombinant (human, UniProt Q9UI95 1-211, R124A). Kind of experiment: ITC.

We go through one molecule from article PMC8108093 (Cell, 2018).

As usually defined, the Kd is the constant that tells how readily two partners part at equilibrium.

His6-REV7_(R124A), recombinant, sequence (Q9UI95 whole entry R124A): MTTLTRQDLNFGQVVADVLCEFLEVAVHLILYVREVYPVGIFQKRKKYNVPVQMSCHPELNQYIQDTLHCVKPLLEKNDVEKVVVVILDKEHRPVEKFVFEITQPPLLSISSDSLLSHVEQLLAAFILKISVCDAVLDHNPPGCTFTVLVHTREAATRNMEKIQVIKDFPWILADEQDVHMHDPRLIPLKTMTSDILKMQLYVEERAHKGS

B1: RINN1_(28–83), recombinant (domain or fragment, human, UniProt Q6ZNX1 28-83, looked up)
chain: QDFPTRPLSRFIPWFPYDGSKLPLRPKRSPPVISEEAAEDVKQYLTISEHDAKSHS
In the case of B1, the Kd amounted to 15.8 nM.
